Data on five molecules can be found in patent US20260049146A1 (PARAGON THERAPEUTICS, published 2026).

Where a chain is given by its changes, count along the chain named. Numbers in names are those of the source.

The chains are these.
B1: Construct 1 PAL02-0195 (IgG1 Fc_M252Y/S254T/T256E/M428L/H433K/N434F) (other)
chain: DKTHTCPPCPAPELLGGPSVFLFPPKPKDTLYITREPEVTCVVVDVSHEDPEVKFNWYVDGVEVHNAKTKPREEQYNSTYRVVSVLTVLHQDWLNGKEYKCKVSNKALPAPIEKTISKAKGQPREPQVYTLPPSRDELTKNQVSLTCLVKGFYPSDIAVEWESNGQPENNYKTTPPVLDSDGSFFLYSKLTVDKSRWQQGNVFSCSVLHEALKFHYTQKSLSLSPG
notes: Fc fragment variant
B2: Construct 5 PAL02-0200 (IgG1 Fc_M252Y/S254T/T256E/H433R/N434Y) (other)
chain: B1 chain with L208M, K213R, F214Y
notes: Fc fragment variant
B3: Construct 4 PAL02-0198 (IgG1 Fc_M252Y/S254T/T256E/M428L/N434F) (other)
chain: B1 chain with K213H
notes: Fc fragment variant
B4: Construct 3 PAL02-0197 (IgG1 Fc_M252Y/S254T/T256E/H433K/N434Y) (other)
chain: B1 chain with L208M, F214Y
notes: Fc fragment variant
B5: Construct 6 PAL02-0202 (IgG1 Fc_M252Y/S254T/T256E/H433R/N434F) (other)
chain: B1 chain with L208M, K213R
notes: Fc fragment variant

For the assay, the target named is T1, Recombinant in-house Human FcRn protein (human, UniProt P55899 24-297; P61769 21-119).
T1 construct: also called HuFcRn; huFcRn
T1 sequence (P55899 24-297 limits assumed, chain 1 of 2): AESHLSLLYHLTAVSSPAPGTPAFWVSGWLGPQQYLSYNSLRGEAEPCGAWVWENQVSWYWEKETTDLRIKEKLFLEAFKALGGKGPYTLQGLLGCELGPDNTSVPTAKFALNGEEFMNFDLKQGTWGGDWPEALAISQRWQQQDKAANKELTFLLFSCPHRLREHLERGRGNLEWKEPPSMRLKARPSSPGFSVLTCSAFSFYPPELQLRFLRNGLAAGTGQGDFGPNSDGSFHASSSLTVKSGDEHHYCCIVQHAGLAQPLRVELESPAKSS
T1 sequence (P61769 21-119 limits assumed, chain 2 of 2): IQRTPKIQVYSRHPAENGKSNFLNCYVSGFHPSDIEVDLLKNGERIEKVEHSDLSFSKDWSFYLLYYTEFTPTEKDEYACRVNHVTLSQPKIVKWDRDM
In words: competition ELISA, huFcRn coated, pH 6.0, competitor biotinylated human IgG1; reference PAL02-0002. Here is the method: A competitive binding ELISA assay was used to screen for molecules that prevent IgG from binding to recombinant in-house human FcRn protein at pH 6.0. Candidate therapeutics prevent FcRn from binding IgG Abs in the acidic pH 6.0 endosomal environment. […] IC50 values were calculated using GraphPad Prism 7 software applying a nonlinear regression (curve fit) of a log (antagonist) vs. response—variable slop (four parameters).
On to B1, for which the “IC50 as a ratio to Efgartigimod” value was ~0.5 ratio.

Turning to B2, the “IC50 as a ratio to Efgartigimod” value was ~0.5 ratio.

As for B3, the “IC50 as a ratio to Efgartigimod” value is ~0.5 ratio.

For B4, the “IC50 as a ratio to Efgartigimod” value was ~0.5 ratio and the “fold lower IC50 than Efgartigimod” value turned out to be 3.5 fold.

Turning to B5, the “IC50 as a ratio to Efgartigimod” value was ~0.5 ratio.
